According to a protein production outcome set (Wang et al. 2014):

Test: label from the status in PepcDB records

Row | Sequence | protein production
1 | MTNVISYNNDKGLLAYIQFLADRALKPSNGNTDPVFDFEDALDQTEMAQLAVDELKKIPEVNTLFAERWLPAPFNLDDLAKLPEGTLGHVYAIEMKARGFDPYFYKKVPVVDDISYLKMLWRSTHDIYHVVAGFDTDGIGEIGLQAFVLAQTPIPISVMLVSFGMVMTSLYQPAKFQDLMAEIARGYSLGSHTPRKLIAQKWDQFWDVPVIEIRECLGMNTVKQRERA | failed
2 | MTPDDQLSAFLGEQPATSRADLFTAVVMQKIERRAFLRDVAAAGGWAAVVGLVAWACAPVLNVLIGALAPGLAPAAAALALVAATLLVSSPSVRRRLGLAAV | failed
3 | MTPDRKGDGGPSPLGDLKDALGGYLSAAGHGLVGRAGDRLGSLTDRLTESADGGGANGGTGGSEPGTGGSRSGSDGSKSGSGGSKSGSGGSKSGGSVKATHIMETVDIGVPLRTVYDQWTQLQDFSDFTKGVQSVSPHDETTSDWTAKIAFSTRSWKATVQEQIPDQRIVWTSEGAKGSTNGVVTFHELAPRLTRVVVVVEYYPAGFFEKTGNLWRAQGRRLRLDLKHFARHVTMTDAEEIEGWRGEIRDGEVVKSHEEALEEDEDAADEYEDDEEGEYDEEESDGEVPDGEEEPYADEDDGEYENDDAYEADDEDDERARPRR | failed
4 | MTPEPDGPEDRLRRFATIWSRAVFPVTSTPLTRPELENRLLPLARRLSEALRARAFDAAEAKAVGAALIDAHCTDPDALSATLDCVDAYLVLYCGTPDASPGDQEALRTRASRLQHAMAAGFAQALRERTLAEQEAISVAALQAQGVVGQALHASEARFRAVFEGAAIGIGIADLEGNILQINGALLRMFGGSEQAVRGRNVTDWTHPDDAPQVWRLYEELVRGEREHYHVEKAFYRPDGTVLWTNLTVSLLRDADGRPEYQLALMEDTTERRLLNLRLRYEATHDALTGLPNRTLFFERLEKALSAGGGQRFGLCYLDLDGFKTINDSLGHAAGDRLLVEVADRLQSCATAPGEMVARLGGDEFVALTTGPDTEREVDELAGRIMNALVTPISIDGRELAVRGSIGIVEGPAGERGPAEVLRSADITMYRAKSAGGNRFELADPEADARAITRHGLTTALPAALDRNEFFIEYQPLVHLGDGSVRGAEALVRWLHPQHGVLGPDRFIPLAEHTGLIVPLGRWVLEQSVRQAREWQERHCAEAAAPLRINVNLSPCQLTHPGLVSDTVDILERSGLEPGALCLEVTESALIGADDDLLKPLRRLAEMGVDIALDDFGTGYSNLANLRRLPVSILKLDRSFTQGMQQYPADPVDLKIVEGIVTLAHSLDLAVTVEGVETGAQAEQLRILGCDTAQGWYYARPGPPERLHELALVDATG | failed
5 | MTPFTVDILIPIWNRPVETRNCLVTLMETTPSARLILIDNGSDRETERLLEEFSEILGERALFLKTSANQGFVRAVNRSLAQVEAPYAVVMQNTTLVTRGWLEPMVELADSRPDAGIIVPRLELEDGQGRRPKAAPPAGPVTEVSHGSFAASMVRRELVERQGGFDEELDGGPWCLRDYSRRAFRNGFLTLALDGAVVTYAEEVPLGSVARREETVRRSAETCRARWGREDAFCIYFPKDAEPEAVHGKLDVILRGARMGQCFTLILHPGLHKSLMETGHAPLHSNIALAPLPRFFATGEIRKIIGKLASVRGDTVTVAGVDGLSIPGVEGARSFSWLADEIRRRHESLYRPESPLEHHHHHH | not failed
6 | MTPHATPAPRVSAIVSLYNAERFVRGCLDDLLGQTLADSLEIIVIDACSPQGEGAIVQDYMRDHPNIVYVRTDEREGVYASWNRGVRLARAPYVTNANADDRHREDALERLAAALDEAPEAGFAYGDCRVGQTENERYADNAGQRVMRFPDFFAPATLLYCQLGPQPLWRRSVHDVVGFFDESYRACADWDFDIRLAAAFRGIHVPDALGLYLEHEAAITFRDDTMTRENDRVQRQWQHPEAVEERYRAAGVPCHTAEERALVHFDMALRALRFYPPWCYGAPAHNPGFARRCLRHALRLAPALAPAKELLALPDAVLTALDDLPSPLGLPSQATLAGVAAPLEHHHHHH | failed
7 | MTPIPLINIPLCNLAGDGYILSEKSQSQNMLRGIVMSETVRVGLLGYGYASKTFHAPLIAGTAGMELVAVSSSNAEKVHADWANLRVEKDPQALFSDPDIDLIVIPTPNDTHFPLAKQALEAGKHVVVDKPFTVTLSQAYDLGAIAERAGKVLSVFHNRRWDSDFLTLKQLLSAGTLGNVVYMESHFDRFRPEVRQRWREDGSEGSGIWYDLGPHLLDQALELFGLPVAIQVDMAQLRPGSKATDYFHATLIYPQRRVILHASMLVAAASARYTVHGTRGSFVKYGLDPQEDRLKAGERPPLADWGQDKHDGVLTLSRDGITAEQTIATIPGNYPAYYAAVRDALLGKGENPVGVNQAIQVMELIELGLLSHEQKKAVALKNSLEHHHHHH | failed
8 | MTPLAEDFGAQGDAATRARWMALVEKTLKGQSFDDALTITTADGLTIQPLYTAEDGVAVARDLRARDTDRPWDLRMRAAHPDPIRAAKDVLTDLEGGAASVLLQIDPTGVNGVAIGSADDLGKALSGVLLDLAPVALDAGFLGPKAADWLGALAKAAPNAPLAFHLDPLTAFAQTGVSPGPIESHVFNAATVATRLSATYARASLFLATGRTAHEAGGSNVEELALMTAAALAYAKALVRSGLTIEEAFGRIALGVSLDGEYFTGVAKVRAAKALWARLTESCGVTVAPTIEARSSRRMLAKADAWTNLLRLTSAGFAGAVGGADAIVLDAFTDAIGLPTAFARRQARNTQLVLMEESHLGRVADPAGGAWYLDSLTDQLARAAWASFQAIEAAGGVIKALESGLVADAVAKSRTAQEAAYADKSRKILGVTVFPNADDKPPEVETPDSSAFAVQGPDVRLPGPDSHCPALTPVRFAAAFEGA | failed
9 | MTPLLTAYLQAWKQYFDFSGQTTRDDFWWFMLAHLLITLVVVSIEIATNNPGWLDLFYSLISFIPMLAILVRRLHDTQRSGWWAWLFVIPVIGPFWLIYLLVQPSSSHFTDKALLS | failed
10 | MTPNAPSTFNNMLLIAVFECRKFLFNLRGMIALIAFALVWGMLLLYPIQGASTLLMQPNIKDLIDGLFGNNALNVLFDWPVAEMAIFWCFALYLFPMFSILIAADQFSSDKTRGTLRFYTIRTSKDSLLFGRFLGQILIQGLLILLTILATIALALSRDASLLLPAISSGALVGVNLLIVILPFTAVMTLLSLYASTARQAMVLATILWTVVSIALLILGNESRLFEGLQWLLPGAQLSNMINTNGLNSLAYAPIPLLQTAIALFLGRIYFQRSQL | failed
11 | MTPNEIAAKLSGLATKYHIRDVTLLAGRLLMSFIFLHEGVTLATHFDGAARAMAALGVGLPLFVATIALQLGAGLSVASGLLTRLGGIGLGLFCLATALLFHTNFASQNELLHFEKDLAISGGMFVLAAVGAGRFSLDWLLAGYLQKRQRDKEMARALLAVENQFSVDVQLPV | failed
12 | MTPNNIVSRTEMDNGIQGFYKDKVVFLTGATGFLGKVIIEKLLRTTEVKRIYAMMRPKRGKDIQERLAIWQKDPLFEVLLKAKPDALKRIFVIAGDCLDPDLGINRSDRKLLVSEVHIVIHGAATVRFNEPLHVALAINTRGTRLMLQLAKEMLQLEAYLHISTAFSNCVIFRIEEKFYPEHLTCDANSVLAMSELLSEQMMDKLAPTLVGNFPNTYTYTKALAEDVVLREFGDLPLSIFRPSVIIATHEEPVSGWIDNLYGPIAHIYGVSHGVLRLTTYDKDGYASLVPVDYCANAALASIWQTSKDKSQRNAISQPAIYTLAPSEKNLLLNTDFIKHSLIHRNDFPLTKMIWYPFVHNISNPRIFPLAAFFYHTLPGYFYDLALRLSGRKPRLVKLYRSIHANIAVLEHFMNNSWHFETKSTDRLRVMMSPEDRRLYNFDMETLDWKEYFRKALFGMRLYLTKEPPTQESLEQGRRLFYRWLLIVDACQVIYLI | failed
13 | MTPSAITLCFLIFAILMFALEKLPLAVTAMIVTVGLAVTGVLPAKEAFLGFVDTNVILFVAMFVIGGALFETGMANKIGGVVSRFAKSERQLMVVLMLITGLMSGILSNTGTSAILIPVILGIAMKSDFARSRLLMPMAFASTLGGNLSLIGSPNNLVVQGVLSQTGLKFGFFEYAKIGLPLLIVGILYFVFIGYRFLPQTLNTHVKKQDYHAFHHHHNIIPKWKQWLSLCVLIATLFAMVFEEVIGIKLYISACIGALILVIMRVITEKQAYQAIDSQVVFLFAGTLALADALKRTGAGADIAHSILSLLGDHPSTTALLLTILLLSCLLTNFMSNTATAALLAPIGLSIANSLNADPRAVLMAVVIGSSCAFATPIATPANTMILSVGQYKFTDYTKAGIPLIIISVLLSMLLLPIFFPLFL | failed
14 | MTPVQLKNYLEQLVGNQIKTSTMIWGPPGIGKSSIVAQIAEEGKLRFIDLRLSQLAPTDLRGLPVAIPTSKTKPQTGTSAWYPPEFLPKDGAGILFLDELNMAPPAMQGVAQQLILDRRVGSYEVPTDWFIWAAGNRKEDRASVFEMPAPLANRFLHLDVQPDFESFKQYALEQKYHEQVIAFLSFRPGLIHKLDLQRPAWPSPRSWAIANGLHQVNLDVSPAVGEGCAAEFSAFVQLYKDLPDLEAIFRGQGQNIGFPTEPSSGYASTIGLAVRAKDATAGVNAFHWLTDKADSEWVQLFVTDMAGQLRRAGHLGALSIMAKKEPKLKQFMQGYQELLAILEHHHHHH | not failed
15 | MTQMRFTEEDFNTFTIEGLDARMEVLKETVRPKLTALGEHFAPTLSALTGDEMFPHVAKHARRSVNPPADSWVAFANSKRGYKKLPHFQIGLWESHVFVWFAIIYESPIKEEYGKLLEVNQETITKNIPDSFVWSADHTKPGVHKQSEMDKEQLKTLFERLQTVKKAELLCGIQLQKEEVLNMNNQEFLQRIDDAFKQLAFLYRLTQKVTQALEHHHHHH | not failed
16 | MTQPELTPAQRTEVELLARGRADKSRVLRDLKLPETPEAAHALLLRLGVWDEARTPYADRLRAALNAVELPVPDFDPAEERLDLTHLPTFAIDDEGNQDPDDAVGVEDLGGGLTRLWVHVADVAALVAPDSPLDLEARARGATLYLPDRTIGMLPDELVAKAGLGLHEVSPALSICLDLDPDGNAEAVDVLLTRVKVQRLAYQEAQARLEAGEEPFVTLARLARASRRLREGEGALSIDLPEVRVKADETGASVFPLPKPEMRTVVQECMTLAGWGTAIFADDNEIPLPFATQDYPTREVAGDTLPAMWARRKTLARTRFQPSPGPHHGMGLDLYAQATSPMRRYLDLVVHQQLRAFLAGRDPLSSKVMAAHIAESQMNADATRQAERLSRRHHTLRFIAAQPERVWDAVVVDRRGAQATLLIPDLAFDVQVNTPAAPGTALQVQFADIDLPQMRVRARSVLEHHHHHH | not failed
17 | MTQPHQIILLAHGSSDARWCETFEKLAEPTVESIENAAIAYMELAEPSLDTIVNRAKGQGVEQFTVVPLFLAAGRHLRKDVPAMIERLEAEHGVTIRLAEPIGKNPRLGLAIRDVVKEELERSEH | not failed
18 | MTQSAPEFKVLQSIAFLAVVLQSSLLYTMNQGNVLLEQSLIMGMLFNLAKFSAPAFIFIVGFHLIRHYTKQLVYKEYISEKATHLLIPYFFWSILYLLTTNDLITLQGGIKSLLLGTAAPHLWYVIMMFQIHLLFPLLCTLFYWFQKRTENKKDIYKYMTFFACLYFLLMWFSSHYIFNGEKLTSSTILHYTDRSFLFYSFYFVMGGIAAVPLKTWRLFVMKHIPLITILFFILFLFINYELFSFYGANSIHLTVSTYLKPSMFLYIVCEIIILYVLSIMIVQRRGFLYKTLRFIGNYTYGAYLAHLFFLQLCTKFLSLFTLQENTILYSLLLFVLTAIISISTMVICSTIPFHTWITGPSPTTKMKWTKVVFRKNHKKLFKPYI | failed
19 | MTQTTPQPDPSRLRDELVRLHGKASPEWDSLVRLDPRFVDAYLKFAGVPQRRNHLDDKTRAFIALAADACATQLYAPGVARHIERALSFGATREELIEVLELVSTIGIHTSNVGVPVLLEVLEEEGLRKGAPPLDERRQKLKAEFETNRGYWHPTWEGLLELDPDLFEAYVEFSSVPWRTGVLSPKIKEFMYCAFDASATHLYVPGLKLHIRNALRYGATAEELMELLEIVSVTGIHGAELGAPLLEAALKRSGAAAGEPHA | not failed
